The values that follow come from paper PMC3290704 (2012).

Usually Kd stands for the equilibrium constant for the complex coming apart.

Experiment [1] concerns the target T1, p53 AD1 13-37 (Homo sapiens, UniProt P04637). Kind of experiment: NMR HSQC titration, global fit raw.
Experiment [2] concerns the target T1, p53 AD1 13-37. Nature of the experiment: NMR HSQC titration, local fit raw.
The target of experiment [3] is T1, p53 AD1 13-37. Nature of the experiment: NMR HSQC titration, local fit raw with concentration correction.
Experiment [4] has as its target T1, p53 AD1 13-37. Nature of the experiment: NMR HSQC titration, local fit SVD.
The target of experiment [5] is T1, p53 AD1 13-37. Nature of the experiment: NMR HSQC titration, local fit SVD. The source holds these as a separate data set.
Experiment [6] concerns the target T1, p53 AD1 13-37. Nature of the experiment: NMR HSQC titration, global fit SVD.
Experiment [7] concerns the target T1, p53 AD1 13-37. Kind of experiment: NMR HSQC titration, local fit raw. This is another data set of the same source.

T1 sequence (P04637 13-37): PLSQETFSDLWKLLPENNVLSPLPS

B1: CBP TAZ2 1764-1855 (protein)
chain: SPQESRRLSIQRCIQSLVHACQCRNANCSLPSCQKMKRVVQHTKGCKRKTNGGCPVCKQLIALCCYHAKHCQENKCPVPFCLNIKHKLRQQQ
With B1, the Kd with p53 AD1 13-37 [1] was found to be 180 µM; with p53 AD1 13-37 [2], 27 µM; with p53 AD1 13-37 [3], 345 µM; with p53 AD1 13-37 [4] it was 33 µM; with p53 AD1 13-37 [5], 225 µM; in the experiment with p53 AD1 13-37 [6] it was 32 µM. In addition, the affinity with p53 AD1 13-37 [7], expressed as Kd, was 448 µM.
